Earlier results, collected in publication PMC5689459.

Target: delta-opioid receptor (Homo sapiens) (UniProt P41143)
Test: radioligand

Sequence of Morphiceptin (P02666 whole entry, looked up): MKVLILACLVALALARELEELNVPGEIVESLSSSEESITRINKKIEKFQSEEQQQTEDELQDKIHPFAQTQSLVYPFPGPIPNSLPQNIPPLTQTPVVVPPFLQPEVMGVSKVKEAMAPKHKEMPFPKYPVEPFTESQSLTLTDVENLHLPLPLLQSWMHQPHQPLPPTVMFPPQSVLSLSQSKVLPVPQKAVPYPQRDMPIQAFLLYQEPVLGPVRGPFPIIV

Ki: > 10 µM
Substance: Morphiceptin (from UniProt P02666)
